Measurements from the supplement of paper PMC7877785.
± gives the uncertainty stated by the source.

Test: self-splicing fitness, log relative to wild type (ln ratio); higher = more splicing; Tetrahymena group I intron in knt gene, E. coli kanamycin selection, DiMSum; sequences stand for … in CUCUCU…GGAGGGAAAAGUUAUCAGGCAUGCACCUGGUAGCUAGUCUUUAAACCAAUAGAUUGCAUCGGUUUAAAAGGCAAGACCGUCAAAUUGCGGGAAAGGGGUCAACAGCCGUUCAGUACCAAGUCUCAGGGGAAACUUUGAGAUGGCCUUGCAAAGGGUAUGGUAAUAAGCUGACGGACAUGGUCCUAACCACGCAGCCAAGUCCUAAGUCAACAGAUCUUCUGUUGAUAUGGAUGCAGUUCACAGACUAAAUGUCGGUCGGGGAAGAUGUAUUCUUCUCAUAAGAUAUAGUCGGACCUCUCCUUAAUGGGAGCUAGCGGAUGAAGUGAUGCAACACUGGAGCCGCUGGGAACUAAUUUGUAUGCGAAAGUAUAUUGAUUAGUUUUGGAGUACUCGUGGUCG
How it was run: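 Colonies from six replicate transformations of E. coli BL21(DE3) were pooled and amplicon-sequenced on an Illumina HiSeq 2500. The library placed an intron with all eight P1ex-region nucleotides randomised inside the knt kanamycin-resistance gene on pET-22b(+), and cells grew overnight at 37°C or 30°C on LB agar with or without 25 μg/mL kanamycin (plus 100 μg/mL carbenicillin, 50 μM IPTG, 0.2% rhamnose). Fitness is the DiMSum error-weighted combination of wild-type-normalised replicate fold changes, kanamycin versus none.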

Sequence: ACAUAGCAAUAUUACGUUAG
- self-splicing fitness (ln) (30 °C): -3.66 ± 0.17
- self-splicing fitness (ln) (37 °C): -1.66 ± 0.14

Sequence: UAAAAGCAAUAUUACGGAGA
- self-splicing fitness (ln) (30 °C): -2.31 ± 0.27
- self-splicing fitness (ln) (37 °C): -1.83 ± 0.27

Sequence: UACAAGCAAUAUUACGAGCA
- self-splicing fitness (ln) (30 °C): -0.289 ± 0.067
- self-splicing fitness (ln) (37 °C): -0.0424 ± 0.075

Sequence: CACUAGCAAUAUUACGACAA
- self-splicing fitness (ln) (30 °C): -3.16 ± 0.37
- self-splicing fitness (ln) (37 °C): -2.06 ± 0.29

Sequence: CUCCAGCAAUAUUACGCAUA
- self-splicing fitness (ln) (37 °C): -2.21 ± 0.29

Sequence: CGGGAGCAAUAUUACGCGGU
- self-splicing fitness (ln) (37 °C): -1.72 ± 0.29

Sequence: UAGCAGCAAUAUUACGACAA
- self-splicing fitness (ln) (30 °C): -1.68 ± 0.12
- self-splicing fitness (ln) (37 °C): -0.157 ± 0.14

Sequence: CUUUAGCAAUAUUACGACCG
- self-splicing fitness (ln) (30 °C): -0.732 ± 0.27
- self-splicing fitness (ln) (37 °C): 0.518 ± 0.26

Sequence: UGCAAGCAAUAUUACGCAUC
- self-splicing fitness (ln) (30 °C): -1.87 ± 0.45
- self-splicing fitness (ln) (37 °C): -1.52 ± 0.45

Sequence: AAGAAGCAAUAUUACGUUCU
- self-splicing fitness (ln) (30 °C): -2.55 ± 0.11
- self-splicing fitness (ln) (37 °C): -1.26 ± 0.1

Sequence: GACUAGCAAUAUUACGUUUG
- self-splicing fitness (ln) (30 °C): -2.63 ± 0.13
- self-splicing fitness (ln) (37 °C): -2.46 ± 0.2

Sequence: GACGAGCAAUAUUACGACUC
- self-splicing fitness (ln) (30 °C): -1.36 ± 0.15
- self-splicing fitness (ln) (37 °C): 0.797 ± 0.18

Sequence: GGGAAGCAAUAUUACGUACA
- self-splicing fitness (ln) (30 °C): -1.02 ± 0.14
- self-splicing fitness (ln) (37 °C): -0.334 ± 0.24

Sequence: AUGUAGCAAUAUUACGAAAA
- self-splicing fitness (ln) (30 °C): -0.961 ± 0.34
- self-splicing fitness (ln) (37 °C): -0.547 ± 0.31

Sequence: GUGGAGCAAUAUUACGGCUA
- self-splicing fitness (ln) (30 °C): -1.06 ± 0.48
- self-splicing fitness (ln) (37 °C): -0.218 ± 0.35

Sequence: ACUAAGCAAUAUUACGAAGG
- self-splicing fitness (ln) (30 °C): -1.51 ± 0.087
- self-splicing fitness (ln) (37 °C): -0.966 ± 0.12

Sequence: UUGGAGCAAUAUUACGAGCG
- self-splicing fitness (ln) (30 °C): -2.64 ± 0.3
- self-splicing fitness (ln) (37 °C): -0.508 ± 0.32

Sequence: GCAGAGCAAUAUUACGCGUC
- self-splicing fitness (ln) (30 °C): -3.88 ± 0.2
- self-splicing fitness (ln) (37 °C): -2.03 ± 0.14

Sequence: UCUAAGCAAUAUUACGCAGC
- self-splicing fitness (ln) (30 °C): -1.83 ± 0.23
- self-splicing fitness (ln) (37 °C): -2.07 ± 0.31

Sequence: CGGCAGCAAUAUUACGUUAG
- self-splicing fitness (ln) (30 °C): -0.86 ± 0.057
- self-splicing fitness (ln) (37 °C): 0.0318 ± 0.078

Sequence: AAGGAGCAAUAUUACGACGC
- self-splicing fitness (ln) (30 °C): -4.09 ± 0.43
- self-splicing fitness (ln) (37 °C): -1.13 ± 0.21

Sequence: ACACAGCAAUAUUACGAUCC
- self-splicing fitness (ln) (30 °C): -1.21 ± 0.093
- self-splicing fitness (ln) (37 °C): -0.951 ± 0.13

Sequence: UCUAAGCAAUAUUACGAAGU
- self-splicing fitness (ln) (30 °C): -1.09 ± 0.11
- self-splicing fitness (ln) (37 °C): -1.07 ± 0.15

Sequence: AUGUAGCAAUAUUACGAGUG
- self-splicing fitness (ln) (30 °C): -2.52 ± 0.12
- self-splicing fitness (ln) (37 °C): -2.72 ± 0.18

Sequence: GCCUAGCAAUAUUACGGCGG
- self-splicing fitness (ln) (30 °C): -3.45 ± 0.24
- self-splicing fitness (ln) (37 °C): -2.44 ± 0.35

Sequence: UGAGAGCAAUAUUACGGUAC
- self-splicing fitness (ln) (37 °C): -2 ± 0.38

Sequence: GUAAAGCAAUAUUACGACUC
- self-splicing fitness (ln) (30 °C): 0.441 ± 0.1
- self-splicing fitness (ln) (37 °C): 1.06 ± 0.15

Sequence: GAUGAGCAAUAUUACGCAUG
- self-splicing fitness (ln) (30 °C): -1.61 ± 0.13
- self-splicing fitness (ln) (37 °C): -2.14 ± 0.2

Sequence: UGUGAGCAAUAUUACGUCCA
- self-splicing fitness (ln) (30 °C): -0.973 ± 0.13
- self-splicing fitness (ln) (37 °C): -0.0412 ± 0.16

Sequence: GGCAAGCAAUAUUACGUGCU
- self-splicing fitness (ln) (30 °C): -3.91 ± 0.16
- self-splicing fitness (ln) (37 °C): -2.99 ± 0.2

Sequence: UCACAGCAAUAUUACGUCAC
- self-splicing fitness (ln) (30 °C): -3.17 ± 0.18
- self-splicing fitness (ln) (37 °C): -1.64 ± 0.13

Sequence: CAUAAGCAAUAUUACGCAUG
- self-splicing fitness (ln) (30 °C): -1.55 ± 0.12
- self-splicing fitness (ln) (37 °C): -2.27 ± 0.23

Sequence: UAAAAGCAAUAUUACGUAUU
- self-splicing fitness (ln) (30 °C): -2.24 ± 0.14
- self-splicing fitness (ln) (37 °C): -1.88 ± 0.19

Sequence: GACUAGCAAUAUUACGUUAA
- self-splicing fitness (ln) (30 °C): -2.16 ± 0.12
- self-splicing fitness (ln) (37 °C): -0.716 ± 0.11

Sequence: UCUCAGCAAUAUUACGGGUC
- self-splicing fitness (ln) (30 °C): -4.37 ± 0.34
- self-splicing fitness (ln) (37 °C): -1.52 ± 0.16

Sequence: ACAAAGCAAUAUUACGCUAU
- self-splicing fitness (ln) (30 °C): -2.38 ± 0.088
- self-splicing fitness (ln) (37 °C): -0.848 ± 0.092

Sequence: CACGAGCAAUAUUACGAGCU
- self-splicing fitness (ln) (30 °C): -4.14 ± 0.35
- self-splicing fitness (ln) (37 °C): -3.33 ± 0.39

Sequence: UGAUAGCAAUAUUACGCGCG
- self-splicing fitness (ln) (30 °C): -0.57 ± 0.086
- self-splicing fitness (ln) (37 °C): -0.283 ± 0.12

Sequence: CUUAAGCAAUAUUACGGGAG
- self-splicing fitness (ln) (30 °C): -3.42 ± 0.27
- self-splicing fitness (ln) (37 °C): -2.67 ± 0.27

Sequence: CUAUAGCAAUAUUACGAGGU
- self-splicing fitness (ln) (30 °C): -4.07 ± 0.42
- self-splicing fitness (ln) (37 °C): -3.28 ± 0.42

Sequence: GAACAGCAAUAUUACGUGCA
- self-splicing fitness (ln) (30 °C): -1.09 ± 0.065
- self-splicing fitness (ln) (37 °C): 0.0769 ± 0.089

Sequence: GCAAAGCAAUAUUACGGUGU
- self-splicing fitness (ln) (30 °C): -4.55 ± 0.29
- self-splicing fitness (ln) (37 °C): -2.71 ± 0.25

Sequence: AAUGAGCAAUAUUACGAACU
- self-splicing fitness (ln) (30 °C): -1.11 ± 0.14
- self-splicing fitness (ln) (37 °C): -0.57 ± 0.16

Sequence: ACGCAGCAAUAUUACGCAGA
- self-splicing fitness (ln) (30 °C): -2.74 ± 0.18
- self-splicing fitness (ln) (37 °C): -1.92 ± 0.12

Sequence: CCGCAGCAAUAUUACGGUCA
- self-splicing fitness (ln) (30 °C): -3.47 ± 0.29
- self-splicing fitness (ln) (37 °C): -2.46 ± 0.3

Sequence: AAGUAGCAAUAUUACGUGUG
- self-splicing fitness (ln) (30 °C): -2.07 ± 0.099
- self-splicing fitness (ln) (37 °C): -1.15 ± 0.094

Sequence: ACCUAGCAAUAUUACGCUGU
- self-splicing fitness (ln) (30 °C): -1.54 ± 0.071
- self-splicing fitness (ln) (37 °C): -0.737 ± 0.078

Sequence: GCAAAGCAAUAUUACGUUGG
- self-splicing fitness (ln) (30 °C): -1.94 ± 0.069
- self-splicing fitness (ln) (37 °C): -1.32 ± 0.09
